From patent publication WO2009041734A1

Target: human thrombopoietin receptor (human c-Mpl) (human) (UniProt P40238)
Assay: cell-based or functional assay

UT7/TPO (Max): 100%
Substance: PEG-rHuMGDF (Pegylated Recombinant Human Megakaryocyte Growth and Development Factor) (ligand)
